Literature values in patent publication US8460910B2 (Illumina Cambridge Limited, priority 2003, dated 2013).

Tested on: ddNTPs
Details: cited from earlier work

B1: A486Y variant of Pfu DNA polymerase: Pfu DNA polymerase with A486Y mutation (Evans et al. 2000) (protein, UniProt P61875 1-775, looked up, variant A486Y)
DNA polymerase: MILDVDYITEEGKPVIRLFKKENGKFKIEHDRTFRPYIYALLRDDSKIEEVKKITGERHGKIVRIVDVEKVEKKFLGKPITVWKLYLEHPQDVPTIREKVREHPAVVDIFEYDIPFAKRYLIDKGLIPMEGEEELKILAFDIETLYHEGEEFGKGPIIMISYADENEAKVITWKNIDLPYVEVVSSEREMIKRFLRIIREKDPDIIVTYNGDSFDFPYLAKRAEKLGIKLTIGRDGSEPKMQRIGDMTAVEVKGRIHFDLYHVITRTINLPTYTLEAVYEAIFGKPKEKVYADEIAKAWESGENLERVAKYSMEDAKATYELGKEFLPMEIQLSRLVGQPLWDVSRSSTGNLVEWFLLRKAYERNEVAPNKPSEEEYQRRLRESYTGGFVKEPEKGLWENIVYLDFRALYPSIIITHNVSPDTLNLEGCKNYDIAPQVGHKFCKDIPGFIPSLLGHLLEERQKIKTKMKETQDPIEKILLDYRQKYIKLLANSFYGYYGYAKARWYCKECAESVTAWGRKYIELVWKELEEKFGFKVLYIDTDGLYATIPGGESEEIKKKALEFVKYINSKLPGLLELEYEGFYKRGFFVTKKRYAVIDEEGKVITRGLEIVRRDWSEIAKETQARVLETILKHGDVEEAVRIVKEVIQKLANYEIPPEKLAIYEQITRPLHEYKAIGPHVAVAKKLAAKGVKIKPGMVIGYIVLRGDGPISNRAILAEEYDPKKHKYDAEYYIENQVLPAVLRILEGFGYRKEDLRYQKTRQVGLTSWLNIKKS
improvement of ratio of ddNTP/dNTP in sequencing ladders compared to wild type: 150 fold
